Experiments:
aortic rings = test: Aortic ring assay; format: cell-based
Experimental: Cell migration assays were performed on growth arrested confluent HMVEC, BAEC or hSMC cells. Cell monolayers were wounded with a rubber policeman and washed with serum-free medium. Dishes were then incubated for 20 hours in serum-free medium containing VEGF165, PDGF-AA, (R&D Systems, Minneapolis USA) or PDGF-CC. Each assay included two dishes per condition and was repeated three times independently. Cells were photographed at 40× magnification, and migration percentage corresponding to the ratio between area of the cells and the total area of the wound (Biocom visiol@b 2000 version 4.52, San Diego). For HMVEC proliferation assay, cells were seeded in 96-well plates (5 wells per condition), and incubated with VEGF, PDGF-AA, or PDGF-CC (50 ng/ml) after serum starvation. After 7 days, viable cells were counted using the cell Titer-glo luminescent cell viability assay. For NIH-3T3 and hSMC proliferation assay, cells cultured in 96-well plates were serum-starved overnight, followed by treatment with growth factors at different concentrations. Two days later, cell numbers were counted and proliferation percentage calculated, using cells cultured in medium containing 10% serum as control. Aortic ring assay was performed as described 51. Briefly, one-millimeter long aortic rings were embedded in gels of rat tail interstitial collagen and cultured at 37° C., supplemented with different growth factors (50 ng/ml). Aortic rings were analysed at day 9 of culturing. Experiments included three explants per condition and were repeated at least twice. Aortic rings were photographed at 25× magnification.
Although PDGFR-α is expressed on endothelial cells (Edelberg et al., Journal of Clinical Investigation, 1998 102:837-43; Smits et al., Growth Factors, 1989 2:1-8; Bar et al., Endocrinology, 1989 124:1841-8; Beitz et al., Proc Natl Acad Sci USA, 1991 88:2021-5; Marx et al., J Clin Invest, 1994 93:131-9; Shinbrot et al., Dev. Dyn., 1994 199:169-175), little is known about the functional consequence of PDGFR-α signaling in these cells. […] We also tested the effect of PDGF-CC on cultured aortic rings, as this assay allows assessment of the outgrowth of microvessels from an intact vessel in vitro (Blacher et al., Angiogenesis, 2001 4:133-42). Results are graphically represented as the number of microvessels and the distance over which they grew out from the aortic ring. Each experiment included three explants per condition and was repeated at least twice. At day 9 after culturing, microvessels and the distance of their outgrowth were quantified and evaluated using Student's t test. In baseline conditions, only a small number of microvessels sprouted from the aortic rings—most of them over very short distances (0.25 mm from the aortic ring)—and only a small fraction (<5%) growing out over longer distances (>0.5 mm from the aortic ring, FIG. 41a). VEGF increased not only the number of sprouting microvessels (P<0.001 at all concentrations versus control), but also the distance over which they grew out (P<0.05 at all concentrations versus control; FIG. 41b,f). At 30 ng/ml, PDGF-CC increased the number of microvessels (P<0.001 versus control, FIG. 41e,g) and increased the distance of vessel outgrowth at 5 ng/ml (P<0.01 versus control, FIG. 41g). […] A similar bell-shaped dose-response relationship has been documented for other members of the VEGF/PDGF-superfamily (Jin et al., J Mol Neurosci, 2000 14:197-203). […]

[1] = system: human bone marrow-derived AC133+CD34+ cells; test: Human bone marrow cell adherence and differentiation assay; format: cell-based; conditions: 50 ng/ml
Experimental: Enriched human BM derived AC133+CD34+ cells (Clonetics) at 10^5/ml were cultured for 3 days in HPGM (Clonetics) in a 6-well plate (Becton Dickinson). Cells were then seeded in collagen coated 12-well plates in EBM (Clonetics) medium containing 4% FCS and VEGF165 (R&D Systems) or PDGF-CC (50 ng/ml each). Growth factors were added every two days and media were refreshed at 75% every four days. For adherence assay, 2.5×10^4 of non-adherent cells/ml were cultured in the same condition on chamber slides coated with collagen, or in 96-well plate coated with 0.3% gelatin in PBS. Cells were then washed three times with PBS, fixed and stained with May-Grünwald Giemsa (Sigma) after two weeks of culture on chamber slides (Becton Dickinson). The number of viable cells was estimated by ATP quantification using cellTiter-glo luminescent cell viability assay (Promega) according to the manufacturer's instructions. For cell surface marker staining, cells (2×10^4/well) cultured on collagen-coated culture slides for two or four weeks were fixed (45 min, 25° C.) and permeabilized (45 min, 25° C.) using a Intrastain Kit (DAKO), and then labeled with CD31-FITC (Becton Dickinson), CD144-FITC (Pharmingen), CD34-FITC (Becton Dickinson) or SMC-Actin CY3 (Sigma). Single or double-labeled cells were analyzed using laser confocal immunofluorescence microscopy.
Upon stimulation by growth factors or cytokines, bone marrow stem/progenitor cells can differentiate into ECs and SMCs and thereby contribute to angio/arteriogenesis (Orlic et al., Nature, 2001 410:701-5; Kawamoto et al., Circulation, 2001 103:634-7; Asahara et al., Circ Res, 1999 85:221-8). The potential role of PDGF-CC in the differentiation of bone marrow progenitors into vascular cells has, however, not been investigated thus far. We therefore cultured human bone marrow-derived AC133^+CD34^+ cells—a population enriched for stem/progenitor cells (Miraglia et al., Blood, 1997 90:5013-21; Yu et al., J Biol Chem, 2002 277:20711-6; Donnelly et al., Leuk Lymphoma, 2001 40:221-34)—and stimulated them with PDGF-CC, using VEGF as a control (50 ng/ml each).

B1: PDGF-CC: recombinant human PDGF-CC core domain homodimer, residues 230-345 of full-length PDGF-C (SEQ ID NO:40), produced in baculovirus infected insect cells (protein)
chain: GRKSRVVDLNLLTEEVRLYSCTPRNFSVSIREELKRTDTIFWPGCLLVKRCGGNCACCLHNCNECQCVPSKVTKKYHEVLQLRPKTGVRGLHKSLTDVALEHHEECDCVCRGSTGG
modifications: homodimer; PDGF-C core domain
distance of vessel outgrowth (aortic rings; 5 ng/ml, day 9, versus control): increased
number of microvessels (aortic rings; 30 ng/ml, day 9, versus control): increased
concentration of maximal stimulation of perivascular fibroblast-like cells (aortic rings; FIG. 41 legend): 5 to 10 ng/mL
concentration of maximum effect on microvessel sprouting (aortic rings; bell-shaped dose-response, less potent at 50 ng/ml): 30 ng/mL
number and emigration of perivascular fibroblast-like cells (aortic rings; day 9, versus control): significantly increased
SMA positive cells ([1]; four weeks): > 95%
expression of CD144 and CD31 ([1]; four weeks): lost their expression
adherence of AC133+CD34+ cells ([1]; two weeks of stimulation): enhanced
expression of EC surface markers CD144 (VE-cadherin) and CD31 (PECAM) ([1]; two weeks of stimulation): induced
expression of smooth muscle cell marker SMA ([1]; two weeks of stimulation): induced

Source: patent publication US20070172423A1, “Composition and method for modulating vasculogenesis for angiogenesis” (priority 1998, published 2007)
